Read-outs that look alike come from different tables or passages of the source.
B1: Tom40 with a C-terminal Strep-tag (overexpressed, wild type) (natural protein, S. cerevisiae, UniProt P23644 1-387, looked up)
chain: MSAPTPLAEASQIPTIPALSPLTAKQSKGNFFSSNPISSFVVDTYKQLHSHRQSLELVNPGTVENLNKEVSRDVFLSQYFFTGLRADLNKAFSMNPAFQTSHTFSIGSQALPKYAFSALFANDNLFAQGNIDNDLSVSGRLNYGWDKKNISKVNLQISDGQPTMCQLEQDYQASDFSVNVKTLNPSFSEKGEFTGVAVASFLQSVTPQLALGLETLYSRTDGSAPGDAGVSYLTRYVSKKQDWIFSGQLQANGALIASLWRKVAQNVEAGIETTLQAGMVPITDPLMGTPIGIQPTVEGSTTIGAKYEYRQSVYRGTLDSNGKVACFLERKVLPTLSVLFCGEIDHFKNDTKIGCGLQFETAGNQELLMLQQGLDADGNPLQALPQL
B4: Tom22 with a C-terminal His-tag (natural protein, S. cerevisiae, UniProt P49334 1-152, looked up)
chain: MVELTEIKDDVVQLDEPQFSRNQAIVEEKASATNNDVVDDEDDSDSDFEDEFDENETLLDRIVALKDIVPPGKRQTISNFFGFTSSFVRNAFTKSGNLAWTLTTTALLLGVPLSLSILAEQQLIEMEKTFDLQSDANNILAQGEKDAAATAN

Experiments:
cryo-EM structure = molecular target: the molecule itself; test: cryo-EM structure
[1] = molecular target: B1; test: cryo-EM structure
[2] = molecular target: B4; test: cryo-EM structure
[3] = molecular target: B1; test: cryo-EM structure; remark: listed apart in the source
SEC = molecular target: the molecule itself; test: SEC

B1: binds (cryo-EM structure).

B2: Tom6 (natural protein, S. cerevisiae, UniProt P33448 1-61, looked up)
chain: MDGMFAMPGAAAGAASPQQPKSRFQAFKESPLYTIALNGAFFVAGVAFIQSPLMDMLAPQL
B2: binds [1].

MFGLPQQEVSEEEKRAHQEQTEKTLKQAAYVAAFLWVSPMIWHLVKKQWK (natural protein, S. cerevisiae, UniProt P80967 1-50, looked up) [Tom5]: binds [2]; binds [3].

B3: core TOM complex from S. cerevisiae (Tom40, Tom22, Tom5, Tom6, Tom7) (complex)
chain 1: MSAPTPLAEASQIPTIPALSPLTAKQSKGNFFSSNPISSFVVDTYKQLHSHRQSLELVNPGTVENLNKEVSRDVFLSQYFFTGLRADLNKAFSMNPAFQTSHTFSIGSQALPKYAFSALFANDNLFAQGNIDNDLSVSGRLNYGWDKKNISKVNLQISDGQPTMCQLEQDYQASDFSVNVKTLNPSFSEKGEFTGVAVASFLQSVTPQLALGLETLYSRTDGSAPGDAGVSYLTRYVSKKQDWIFSGQLQANGALIASLWRKVAQNVEAGIETTLQAGMVPITDPLMGTPIGIQPTVEGSTTIGAKYEYRQSVYRGTLDSNGKVACFLERKVLPTLSVLFCGEIDHFKNDTKIGCGLQFETAGNQELLMLQQGLDADGNPLQALPQL
chain 2: MVELTEIKDDVVQLDEPQFSRNQAIVEEKASATNNDVVDDEDDSDSDFEDEFDENETLLDRIVALKDIVPPGKRQTISNFFGFTSSFVRNAFTKSGNLAWTLTTTALLLGVPLSLSILAEQQLIEMEKTFDLQSDANNILAQGEKDAAATAN
chain 3: MFGLPQQEVSEEEKRAHQEQTEKTLKQAAYVAAFLWVSPMIWHLVKKQWK
chain 4: MDGMFAMPGAAAGAASPQQPKSRFQAFKESPLYTIALNGAFFVAGVAFIQSPLMDMLAPQL
chain 5: MSFLPSFILSDESKERISKILTLTHNVAHYGWIPFVLYLGWAHTSNRPNFLNLLSPLPSV
In the case of B3, the “stoichiometry N” value (SEC) is reported as 2.

B4: binds [3].

B5: Tom7 (natural protein, S. cerevisiae, UniProt P53507 1-60, looked up)
chain: MSFLPSFILSDESKERISKILTLTHNVAHYGWIPFVLYLGWAHTSNRPNFLNLLSPLPSV
B5: binds [3].
